Source: patent US20180356429A1 (Genentech, published 2018)
One block for each binder: values may come before it.

Columns and labels:
[1] = target: T1, native IL-13 in human serum (human, UniProt P35225 33-146); experiment: pre-incubation of serum with excess (100 ug/mL) capture antibody for 1 h at room temperature, then IMPACT IL-13 sandwich assay
T1 construct: Endogenous IL-13 in serum of healthy volunteers and of patients with asthma, IPF or atopic dermatitis; also called serum IL-13; endogenous IL-13
T1 sequence (P35225 other isoform, or with tags, fused parts or gaps): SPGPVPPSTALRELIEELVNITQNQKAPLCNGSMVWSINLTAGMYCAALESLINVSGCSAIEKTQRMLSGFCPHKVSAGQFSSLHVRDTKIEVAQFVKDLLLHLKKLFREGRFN

[2] = target: T2, Recombinant human IL-13 (R&D Systems, MN, catalog no. 213-ILB/CF) (human, UniProt P35225 33-146); experiment: sandwich pair screen, 100 pg/mL recombinant IL-13 against blank, binder is detection Ab 11H4; capture Ab 228B/C
T2 construct: also called recombinant IL-13
T2 sequence (P35225 other isoform, or with tags, fused parts or gaps): as above

[3] = target: T2, Recombinant human IL-13 (R&D Systems, …); experiment: sandwich pair screen, 100 pg/mL recombinant IL-13 against blank, binder is detection Ab 11H4; capture Ab MILR1444A

binding result [1]: binds
B1: biotinylated lebrikizumab F(ab')2 (other)
VH: VTLRESGPALVKPTQTLTLTCTVSGFSLSAYSVNWIRQPPGKALEWLAMIWGDGKIVYNSALKSRLTISKDTSKNQVVLTMTNMDPVDTATYYCAGDGYYPYAMDNWGQGSLVTVSS
VL: DIVMTQSPDSLSVSLGERATINCRASKSVDSYGNSFMHWYQQKPGQPPKLLIYLASNLESGVPDRFSGSGSGTDFTLTISSLQAEDVAVYYCQQNNEDPRTFGGGTKVEIK
modifications: biotinylated (sites not given)
notes: F(ab')2 fragment of lebrikizumab, the capture reagent of the IMPACT IL-13 assay; also called capture antibody; first antibody

positive/negative ratio [2]: 317
positive/negative ratio [3]: 22800
B2: 11H4 (anti-IL-13 mu11H4) (antibody, IgG1, V domains shown)
VH: QVTLKESGPGILQPSQTLSLTCSFSGFSLSTSDMGVGWIRQPSGKGLEWLAHIWWDDVKRYNPALKSRLTISKDTSSSQVFLKIASVDTADTATYYCARIGTNYGYDGLFDYWGQGTTLTVSS
VL: DIVLTQSPASLAVSLGQRATISCRASQSVSTSSYSYMNWYQQTPGQPPKLLIKYASNLESGIPARFSGSGSGTDFTLNIHPVEEEDTATYYCQHSWEIPYTFGGGT
notes: Murine antibody; In the IMPACT IL-13 assay it was used as full-length IgG1 labelled with digoxigenin
